Test results taken from the supplement of paper PMC10065799, “High-throughput profiling of sequence recognition by tyrosine kinases and SH2 domains using bacterial peptide display” (eLife, 2023).

Legend:
AncSZ = experiment: phosphorylation enrichment, bacterial display (enrichment ratio); higher = better substrate or ligand; peptides without Tyr show the background
EPHB1 = EPHB1 (UniProt P54762); experiment: as above
EPHB2 = EPHB2 (UniProt P29323); experiment: as above
FGFR1 = FGFR1 (UniProt P11362); experiment: as above
FGFR3 = FGFR3 (UniProt P22607); experiment: as above
Fer (mouse) = experiment: as above
Fes = Fes (UniProt P07332); experiment: as above
Fyn = Fyn (UniProt P06241); experiment: as above
Hck = Hck (UniProt P08631); experiment: as above
Jak2 = Jak2 (UniProt O60674); experiment: as above
MERTK = MERTK (UniProt Q12866); experiment: as above
c-Abl (mouse) = experiment: as above
c-Src = experiment: as above
Grb2 SH2 = Grb2 SH2 (UniProt P62993); experiment: SH2 binding enrichment of the phosphorylated peptide, bacterial display (enrichment ratio); higher = better substrate or ligand; peptides without Tyr show the background
SHP2-C SH2 = experiment: as above
c-Src SH2 = experiment: as above
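For SH2 binding enrichment of the phosphorylated peptide, bacterial display in this document: peptide library displayed on the E. coli surface as eCPX fusions, selected cells deep-sequenced, score is each peptide's frequency after selection divided by its frequency in the input.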
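For phosphorylation enrichment, bacterial display in this document: 11-residue human phosphosite peptides and single-mutation variants displayed on the E. coli surface, counted by deep sequencing, each peptide's frequency after selection divided by its frequency in the unselected input library; frequency after pTyr selection over input frequency; kinase dosed for 20-30% of maximal phosphorylation in three min.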

Chain of Hck (P08631 whole entry, looked up): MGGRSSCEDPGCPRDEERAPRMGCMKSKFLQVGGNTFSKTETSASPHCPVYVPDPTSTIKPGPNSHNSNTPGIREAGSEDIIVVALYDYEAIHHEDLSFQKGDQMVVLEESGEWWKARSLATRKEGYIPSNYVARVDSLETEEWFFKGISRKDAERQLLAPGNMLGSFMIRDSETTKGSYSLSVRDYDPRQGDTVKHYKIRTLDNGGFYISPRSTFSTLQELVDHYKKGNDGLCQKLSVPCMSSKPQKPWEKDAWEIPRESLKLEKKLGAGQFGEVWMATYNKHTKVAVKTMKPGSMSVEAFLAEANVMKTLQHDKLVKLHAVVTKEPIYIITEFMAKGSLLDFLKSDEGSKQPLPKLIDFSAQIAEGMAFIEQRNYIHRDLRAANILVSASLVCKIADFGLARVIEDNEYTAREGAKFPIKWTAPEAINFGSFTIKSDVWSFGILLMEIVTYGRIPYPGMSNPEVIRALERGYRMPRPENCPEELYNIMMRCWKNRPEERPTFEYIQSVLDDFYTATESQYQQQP
Chain of Fyn (P06241 whole entry, looked up): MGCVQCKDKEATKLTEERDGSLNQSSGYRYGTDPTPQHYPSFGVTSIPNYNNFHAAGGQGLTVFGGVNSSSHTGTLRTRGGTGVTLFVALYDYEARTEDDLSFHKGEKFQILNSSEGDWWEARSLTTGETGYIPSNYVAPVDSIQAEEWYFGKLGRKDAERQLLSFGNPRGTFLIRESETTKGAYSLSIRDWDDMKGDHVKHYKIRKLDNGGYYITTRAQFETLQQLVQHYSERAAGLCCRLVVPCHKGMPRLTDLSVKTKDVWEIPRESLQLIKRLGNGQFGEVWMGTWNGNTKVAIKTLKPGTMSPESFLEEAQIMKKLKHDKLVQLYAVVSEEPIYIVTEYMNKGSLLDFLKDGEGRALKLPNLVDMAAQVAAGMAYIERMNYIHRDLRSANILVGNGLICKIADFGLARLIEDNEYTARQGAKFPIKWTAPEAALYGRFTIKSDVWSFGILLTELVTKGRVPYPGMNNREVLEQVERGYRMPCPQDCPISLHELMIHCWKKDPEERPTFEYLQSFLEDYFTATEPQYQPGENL
Chain of MERTK (Q12866 whole entry, looked up): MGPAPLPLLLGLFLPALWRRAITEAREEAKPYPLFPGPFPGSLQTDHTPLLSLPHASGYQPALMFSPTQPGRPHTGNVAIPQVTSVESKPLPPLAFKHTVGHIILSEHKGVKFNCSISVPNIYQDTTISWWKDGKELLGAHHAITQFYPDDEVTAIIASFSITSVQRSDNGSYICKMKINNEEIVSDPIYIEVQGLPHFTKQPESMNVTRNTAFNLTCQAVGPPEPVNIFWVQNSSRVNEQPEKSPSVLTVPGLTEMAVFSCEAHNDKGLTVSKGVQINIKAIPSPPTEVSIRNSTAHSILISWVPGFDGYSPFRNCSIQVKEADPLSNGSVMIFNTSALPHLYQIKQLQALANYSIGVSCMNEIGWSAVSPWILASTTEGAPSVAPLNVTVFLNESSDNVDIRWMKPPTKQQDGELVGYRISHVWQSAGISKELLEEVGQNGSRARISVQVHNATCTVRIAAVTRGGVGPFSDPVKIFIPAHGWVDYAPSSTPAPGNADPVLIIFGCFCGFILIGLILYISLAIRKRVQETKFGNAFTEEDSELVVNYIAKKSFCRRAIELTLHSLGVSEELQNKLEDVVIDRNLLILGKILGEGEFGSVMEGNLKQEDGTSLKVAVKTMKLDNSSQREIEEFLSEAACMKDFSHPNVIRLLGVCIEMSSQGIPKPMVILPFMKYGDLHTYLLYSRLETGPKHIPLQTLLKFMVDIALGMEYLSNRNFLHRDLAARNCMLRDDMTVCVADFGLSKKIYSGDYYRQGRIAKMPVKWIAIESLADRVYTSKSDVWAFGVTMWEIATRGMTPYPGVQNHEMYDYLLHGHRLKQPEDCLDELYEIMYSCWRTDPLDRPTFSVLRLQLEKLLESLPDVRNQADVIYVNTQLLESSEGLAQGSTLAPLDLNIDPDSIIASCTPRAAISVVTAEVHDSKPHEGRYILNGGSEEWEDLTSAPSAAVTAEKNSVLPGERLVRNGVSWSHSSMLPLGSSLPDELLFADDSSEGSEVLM
Chain of EPHB2 (P29323 whole entry, looked up): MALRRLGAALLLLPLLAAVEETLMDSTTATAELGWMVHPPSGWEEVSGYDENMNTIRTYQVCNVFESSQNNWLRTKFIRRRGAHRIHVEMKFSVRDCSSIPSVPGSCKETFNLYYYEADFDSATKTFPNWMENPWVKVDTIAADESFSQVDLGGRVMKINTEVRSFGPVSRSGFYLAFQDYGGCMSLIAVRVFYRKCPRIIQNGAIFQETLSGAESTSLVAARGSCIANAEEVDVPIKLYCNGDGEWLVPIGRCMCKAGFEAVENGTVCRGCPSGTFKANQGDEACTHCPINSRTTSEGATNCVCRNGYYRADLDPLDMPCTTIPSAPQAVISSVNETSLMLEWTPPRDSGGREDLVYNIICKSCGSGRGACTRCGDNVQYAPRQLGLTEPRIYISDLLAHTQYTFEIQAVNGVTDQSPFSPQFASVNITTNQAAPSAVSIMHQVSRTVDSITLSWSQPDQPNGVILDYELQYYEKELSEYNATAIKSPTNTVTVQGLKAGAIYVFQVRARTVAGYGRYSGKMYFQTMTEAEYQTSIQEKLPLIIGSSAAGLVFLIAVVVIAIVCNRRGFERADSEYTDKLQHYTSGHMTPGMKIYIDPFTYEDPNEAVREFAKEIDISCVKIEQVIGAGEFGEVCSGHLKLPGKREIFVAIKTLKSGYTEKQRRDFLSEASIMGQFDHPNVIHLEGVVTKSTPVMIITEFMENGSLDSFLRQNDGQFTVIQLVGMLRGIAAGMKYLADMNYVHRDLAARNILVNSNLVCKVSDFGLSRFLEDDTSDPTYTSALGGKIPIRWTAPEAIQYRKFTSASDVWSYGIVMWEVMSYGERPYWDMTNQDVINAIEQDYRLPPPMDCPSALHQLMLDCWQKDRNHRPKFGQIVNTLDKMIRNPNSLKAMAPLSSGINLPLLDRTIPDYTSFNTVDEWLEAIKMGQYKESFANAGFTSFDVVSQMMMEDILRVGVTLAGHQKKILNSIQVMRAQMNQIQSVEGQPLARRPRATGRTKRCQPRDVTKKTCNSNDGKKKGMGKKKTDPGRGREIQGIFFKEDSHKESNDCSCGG
Chain of EPHB1 (P54762 whole entry, looked up): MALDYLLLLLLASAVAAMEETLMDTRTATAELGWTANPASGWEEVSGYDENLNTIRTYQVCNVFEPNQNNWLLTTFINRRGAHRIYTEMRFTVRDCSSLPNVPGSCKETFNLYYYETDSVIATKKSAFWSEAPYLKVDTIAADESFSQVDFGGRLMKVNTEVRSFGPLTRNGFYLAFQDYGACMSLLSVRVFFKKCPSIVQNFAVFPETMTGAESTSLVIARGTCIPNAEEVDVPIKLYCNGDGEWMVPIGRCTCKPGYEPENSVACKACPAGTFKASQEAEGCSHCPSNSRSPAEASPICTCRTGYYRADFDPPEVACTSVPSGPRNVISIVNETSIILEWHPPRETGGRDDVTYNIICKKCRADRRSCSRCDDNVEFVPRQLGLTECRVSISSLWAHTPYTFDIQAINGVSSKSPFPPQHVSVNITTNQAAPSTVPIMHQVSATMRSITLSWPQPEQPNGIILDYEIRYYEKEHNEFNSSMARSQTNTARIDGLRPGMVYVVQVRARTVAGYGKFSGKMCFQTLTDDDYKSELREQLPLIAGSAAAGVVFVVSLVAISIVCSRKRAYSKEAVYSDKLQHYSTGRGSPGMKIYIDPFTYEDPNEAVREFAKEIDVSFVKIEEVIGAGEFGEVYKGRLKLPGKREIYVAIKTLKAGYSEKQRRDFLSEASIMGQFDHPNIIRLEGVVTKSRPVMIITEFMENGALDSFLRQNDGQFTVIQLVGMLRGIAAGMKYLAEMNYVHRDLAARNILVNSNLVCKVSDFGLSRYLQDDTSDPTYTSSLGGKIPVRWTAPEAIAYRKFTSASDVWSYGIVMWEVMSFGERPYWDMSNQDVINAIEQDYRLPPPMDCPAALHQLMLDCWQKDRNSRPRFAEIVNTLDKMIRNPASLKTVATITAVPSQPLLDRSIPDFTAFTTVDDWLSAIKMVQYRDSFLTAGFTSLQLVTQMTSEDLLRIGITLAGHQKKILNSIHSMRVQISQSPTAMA
Chain of Fes (P07332 whole entry, looked up): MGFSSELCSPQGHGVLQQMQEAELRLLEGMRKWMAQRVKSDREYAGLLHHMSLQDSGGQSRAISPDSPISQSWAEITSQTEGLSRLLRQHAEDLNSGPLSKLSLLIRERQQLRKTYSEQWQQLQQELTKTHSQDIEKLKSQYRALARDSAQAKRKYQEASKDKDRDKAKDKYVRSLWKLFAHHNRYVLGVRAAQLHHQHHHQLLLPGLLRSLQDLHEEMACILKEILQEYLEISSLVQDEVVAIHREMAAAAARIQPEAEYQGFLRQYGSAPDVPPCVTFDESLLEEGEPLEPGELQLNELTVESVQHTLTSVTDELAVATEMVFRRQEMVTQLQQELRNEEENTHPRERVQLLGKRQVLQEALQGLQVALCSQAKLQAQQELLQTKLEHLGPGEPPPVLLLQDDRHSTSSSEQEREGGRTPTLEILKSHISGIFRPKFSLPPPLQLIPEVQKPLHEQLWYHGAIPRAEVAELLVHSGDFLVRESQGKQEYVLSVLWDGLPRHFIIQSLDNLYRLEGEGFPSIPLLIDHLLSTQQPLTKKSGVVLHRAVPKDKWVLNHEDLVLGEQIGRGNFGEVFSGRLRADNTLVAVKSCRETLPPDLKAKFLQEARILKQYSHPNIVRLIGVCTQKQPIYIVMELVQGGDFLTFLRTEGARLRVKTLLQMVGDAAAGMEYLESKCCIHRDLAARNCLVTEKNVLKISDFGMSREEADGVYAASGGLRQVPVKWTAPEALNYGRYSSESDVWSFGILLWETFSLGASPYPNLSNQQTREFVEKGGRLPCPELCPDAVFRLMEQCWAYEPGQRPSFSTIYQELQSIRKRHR

SH2 binding enrichment (Grb2 SH2) | SH2 binding enrichment (SHP2-C SH2) | SH2 binding enrichment (c-Src SH2) | Sequence | phosphorylation enrichment (AncSZ) | phosphorylation enrichment (EPHB1) | phosphorylation enrichment (EPHB2) | phosphorylation enrichment (FGFR1) | phosphorylation enrichment (FGFR3) | phosphorylation enrichment (Fer (mouse)) | phosphorylation enrichment (Fes) | phosphorylation enrichment (Fyn) | phosphorylation enrichment (Hck) | phosphorylation enrichment (Jak2) | phosphorylation enrichment (MERTK) | phosphorylation enrichment (c-Abl (mouse)) | phosphorylation enrichment (c-Src)
0.993 | 1.09 | 0.578 | FDNPVYQKTTE [LDLR_Y828] | 0.737 | 0.605 | 0.497 | 0.5 | 0.498 | 0.424 | 0.864 | 0.759 | 0.933 | 0.549 | 0.453 | 0.438 | 0.531
0.903 | 0.71 | 0.563 | FEGAIYRKDIG [GART_Y417_V421I] | 0.868 | 0.442 | 0.464 | 0.478 | 0.743 | 0.446 | 0.769 | 0.524 | 0.506 | 0.617 | 0.451 | 0.515 | 0.477
0.818 | 0.598 | 0.573 | FEGRSYSACTT [MMP9_Y241] | 0.926 | 0.643 | 0.616 | 0.728 | 0.709 | 0.516 | 1.13 | 0.541 | 0.557 | 0.947 | 0.492 | 0.856 | 0.428
0.812 | 0.568 | 0.674 | FEPWVYSLSYE [PRKDC_Y647_F649L] | 1.6 | 0.749 | 0.767 | 0.602 | 0.893 | 1.77 | 1.49 | 7.16 | 4.72 | 1.33 | 1.6 | 0.707 | 6.59
0.99 | 1.68 | 0.756 | FFSSEYHFVGG [CTSC_Y345_YF] | 2.52 | 3.21 | 3.73 | 14.2 | 10.7 | 0.526 | 0.91 | 2 | 2.44 | 1.95 | 3.31 | 1.71 | 2.94
0.743 | 0.58 | 0.394 | FGSSSYGGAGG [RPA2_Y14_YF] | 0.415 | 0.431 | 0.401 | 0.437 | 0.436 | 0.334 | 0.559 | 0.45 | 0.374 | 0.544 | 0.329 | 0.677 | 0.43
0.876 | 0.613 | 0.534 | FIPFRYPKEFQ [IDS_Y234_H229Y_YF] | 0.705 | 0.316 | 0.494 | 0.465 | 0.516 | 0.323 | 0.883 | 0.469 | 0.469 | 0.548 | 0.409 | 0.595 | 0.565
0.774 | 0.882 | 0.611 | FISLIYTNFEV [GSTP1_Y109_A114V_YF] | 2.18 | 1.07 | 0.903 | 0.839 | 1.21 | 5.37 | 1.77 | 3.99 | 2.7 | 1.79 | 4.4 | 3.47 | 5.5
0.823 | 0.465 | 0.642 | FKDVTYLKEEK [UBE3A_Y127_T129K] | 0.891 | 0.466 | 0.447 | 0.481 | 0.728 | 0.49 | 1.28 | 0.514 | 0.442 | 0.986 | 0.38 | 0.809 | 0.523
0.762 | 0.753 | 0.557 | FKEDPYLVVNP [MCM6_Y810_E806K_YF] | 1.19 | 0.441 | 0.617 | 1.02 | 0.89 | 0.531 | 1.12 | 1.06 | 0.718 | 1.13 | 0.449 | 0.815 | 1.98
0.741 | 0.588 | 0.428 | FKIFLYTLNDN [FN1_Y1975_YF] | 1.3 | 0.624 | 0.791 | 0.523 | 0.717 | 0.548 | 1.35 | 0.584 | 0.494 | 1.06 | 0.366 | 0.877 | 0.43
1.21 | 1.27 | 1.18 | FLAVGYHKPHI [IDS_Y225] | 0.741 | 0.356 | 0.59 | 0.408 | 0.647 | 0.561 | 0.799 | 0.495 | 0.602 | 0.733 | 0.368 | 0.709 | 0.448
0.98 | 1.14 | 1.51 | FLAVGYHKPYI [IDS_Y225_H229Y] | 0.654 | 0.591 | 0.441 | 0.446 | 0.512 | 0.554 | 1.16 | 0.46 | 0.399 | 1.02 | 0.441 | 1.16 | 0.348
0.941 | 1.43 | 0.914 | FMRGMYFRMTD [PLA2G6_Y541_K545T_YF] | 1.09 | 0.698 | 0.563 | 0.496 | 0.663 | 0.506 | 1.2 | 0.434 | 0.513 | 1.39 | 0.438 | 0.715 | 0.481
0.809 | 0.462 | 0.578 | FQKNIYSEEPR [LMNA_Y211_L215P] | 0.773 | 0.438 | 0.443 | 0.478 | 0.582 | 0.454 | 0.871 | 1.02 | 0.763 | 0.717 | 1.73 | 0.477 | 1.54
1.18 | 0.927 | 0.723 | FRKNIYNVKST [SYNE2_Y575_YF] | 0.469 | 0.385 | 0.378 | 0.357 | 0.355 | 0.348 | 0.439 | 0.398 | 0.251 | 0.384 | 0.335 | 0.39 | 0.355
1.3 | 1.16 | 0.855 | FRSSLYLLMET [MYO5C_Y633] | 1.24 | 0.804 | 0.591 | 0.724 | 1.16 | 0.687 | 1.37 | 0.473 | 0.576 | 1.29 | 1.46 | 0.896 | 0.521
0.931 | 0.751 | 0.585 | FSAPNCCFRCG [PPP2CA_Y265_Y265C_YF] | 0.856 | 0.559 | 0.461 | 0.458 | 0.663 | 0.48 | 0.974 | 0.458 | 0.479 | 0.833 | 0.486 | 0.658 | 0.448
1.24 | 0.702 | 0.763 | FSAPNYCFRCG [PPP2CA_Y265_YF] | 0.661 | 0.397 | 0.448 | 0.474 | 0.486 | 0.415 | 0.674 | 0.349 | 0.374 | 0.511 | 0.393 | 0.416 | 0.343
0.641 | 0.785 | 0.505 | FSMGCYEISLG [HMGCL_Y198_YF] | 1.93 | 1.03 | 1.01 | 0.652 | 1.05 | 1.68 | 1.47 | 0.993 | 0.836 | 1.6 | 0.866 | 0.965 | 1.64
0.693 | 0.794 | 0.506 | FSNVLYRPRGP [TMIGD2_Y197_A202P_YF] | 0.549 | 0.429 | 0.399 | 0.367 | 0.444 | 0.397 | 0.674 | 0.438 | 0.479 | 0.959 | 0.434 | 0.568 | 0.463
0.837 | 0.78 | 0.421 | FTRNFYVQAVL [CYBA_Y88_R90Q_YF] | 0.993 | 0.81 | 0.57 | 0.563 | 0.795 | 0.654 | 1.31 | 0.435 | 0.483 | 1.15 | 0.494 | 0.742 | 0.474
0.971 | 0.596 | 0.624 | FVHDNYVIQRT [CPS1_Y1450_R1453Q] | 0.788 | 2.19 | 1.07 | 0.481 | 0.567 | 0.694 | 0.672 | 0.425 | 0.436 | 0.7 | 0.469 | 0.52 | 0.481
0.788 | 0.76 | 0.588 | FVPSNYVAEDR [FRK_Y104_I100V_YF] | 0.782 | 0.527 | 0.625 | 0.447 | 0.662 | 0.409 | 0.827 | 0.439 | 0.431 | 0.642 | 0.38 | 0.625 | 0.35
1.17 | 0.906 | 0.86 | GCRSKHVGLWG [KCNQ1_Y184_Y184H] | 0.518 | 0.316 | 0.314 | 0.36 | 0.388 | 0.325 | 0.481 | 0.385 | 0.328 | 0.409 | 0.397 | 0.516 | 0.359
1.08 | 0.652 | 0.636 | GEDEPYAEPFA [APBA1_Y183_S184A_YF] | 1.43 | 0.584 | 0.571 | 0.607 | 0.872 | 0.569 | 1.21 | 0.462 | 0.593 | 1.47 | 0.547 | 0.814 | 0.649
0.815 | 0.612 | 0.452 | GESKDYALHVG [SVIL_Y185] | 0.606 | 1.92 | 0.721 | 0.469 | 0.532 | 0.436 | 0.798 | 0.463 | 0.461 | 0.461 | 0.468 | 0.502 | 0.416
1.05 | 0.962 | 0.674 | GFILMYDITNE [RAB3C_Y110] | 1.33 | 1.06 | 1.6 | 0.49 | 0.975 | 0.692 | 1.66 | 0.526 | 0.633 | 1.38 | 0.678 | 0.8 | 0.559
0.901 | 0.525 | 0.401 | GGKFSYLKVGH [GRM3_Y480_YF] | 0.634 | 0.409 | 0.368 | 0.512 | 0.519 | 0.344 | 0.619 | 0.361 | 0.371 | 0.642 | 0.463 | 0.494 | 0.411
